The source of these data is publication doi:10.1101/2025.02.26.640373.

In this test the target is SHP2^WT-TurboID (UniProt Q06124).

As for PD-1 pY248 phosphopeptide, the in vitro phosphatase activity (initial velocity, RFU/s, DiFMUP substrate): +PD-1 pY248 over basal activity turned out to be 10 fold.
